From patent publication US20250248376A1 (University of Texas, published 2025) come the findings set out here.

The assay addresses T1, Contactin (mouse Cntn1) (mouse, UniProt P12960 21-1001).
T1 construct: whole, on cells; One entry covers both endogenous spinal cord Contactin and Contactin transfected into HEK cells; It was immunoprecipitated from lysates with anti-Contactin antibodies; also called Contactin/F3
T1 sequence (looked up): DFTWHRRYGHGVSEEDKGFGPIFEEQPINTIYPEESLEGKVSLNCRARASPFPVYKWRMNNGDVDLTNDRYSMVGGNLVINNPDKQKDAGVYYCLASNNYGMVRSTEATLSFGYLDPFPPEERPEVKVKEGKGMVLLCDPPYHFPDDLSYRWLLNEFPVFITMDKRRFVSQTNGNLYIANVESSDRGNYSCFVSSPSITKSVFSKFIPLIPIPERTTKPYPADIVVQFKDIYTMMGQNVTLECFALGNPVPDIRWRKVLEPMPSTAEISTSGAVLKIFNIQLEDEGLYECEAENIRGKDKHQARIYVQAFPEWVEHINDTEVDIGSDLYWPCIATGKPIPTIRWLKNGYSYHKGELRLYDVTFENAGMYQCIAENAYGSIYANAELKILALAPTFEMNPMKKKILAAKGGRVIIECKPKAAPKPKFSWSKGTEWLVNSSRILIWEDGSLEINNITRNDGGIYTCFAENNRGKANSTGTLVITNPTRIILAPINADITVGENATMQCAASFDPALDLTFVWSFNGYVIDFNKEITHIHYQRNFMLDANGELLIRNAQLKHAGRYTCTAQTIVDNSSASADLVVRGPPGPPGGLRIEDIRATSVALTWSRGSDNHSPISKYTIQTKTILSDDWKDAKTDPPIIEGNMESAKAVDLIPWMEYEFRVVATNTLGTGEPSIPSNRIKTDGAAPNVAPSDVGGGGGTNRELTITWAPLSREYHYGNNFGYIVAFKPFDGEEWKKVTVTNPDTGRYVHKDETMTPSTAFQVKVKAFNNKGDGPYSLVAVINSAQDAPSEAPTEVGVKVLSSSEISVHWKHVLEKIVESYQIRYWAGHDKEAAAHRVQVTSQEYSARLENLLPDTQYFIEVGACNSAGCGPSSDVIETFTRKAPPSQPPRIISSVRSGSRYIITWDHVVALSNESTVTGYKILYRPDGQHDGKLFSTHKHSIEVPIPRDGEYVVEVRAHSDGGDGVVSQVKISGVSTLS
Description: co-IP with anti-Contactin antibodies from lysates of HEK cells co-transfected with Contactin, immunoblot for Cntnap1 (FIG. 17J). The source says: After confirming the mutations, the wild-type Cntnap1, Cntnap1C^C324R or […] cDNAs and Contactin cDNA (MG50933-CF, SinoBiological) were co-transfected into HEK cells. Contactin surface expression was examined by immunostaining of live, non-permeabilized HEK cells followed by fixation and permeabilization and immunostaining with an anti-Cntnap1 antibody to detect the expression of Cntnap1. The wild-type Cntnap1 protein was readily localized at the cell surface of the HEK cells (FIGS. 17Ga, c), however, the surface localization of Cntnap1^C324R (FIGS. 17Ha, c), and Cntnap1^R765c (FIGS. 17Ia, c) mutant proteins was strongly affected. […] The Cntnap1 protein expression was mostly cytosolic in both Cntnap1^C324R or Cntnap1^R765C transfected HEK cells as was the Contactin localization. […] IP of cell lysates from HEK cells that co-expressed the wild-type Cntnap1, Cntnap1^C324R and Cntnap1^R765C proteins and Contactin was also carried out. The expression levels of these proteins were similar in HEK cells transfected with respective expression constructs (FIG. 17J, input).
(Immunoblotting shows a protein as a band on a membrane.)

B1: Cntnap1^C324R mutant expressed in HEK cells (site-directed mutant of pCMV-Cntnap1^Flag) (receptor)
chain: WGYYGCNEELVGPLYARSLGASSYYGLFTTARFARLHGISGWSPRIGDPNPWLQIDLMKKHRIRAVATQGAFNSWDWVTRYMLLYGDRVDSWTPFYQKGHNATFFGNVNDSAVVRHDLHYHFTARYIRIVPLAWNPRGKIGLRLGIYGCPYTSSILYFDGDDAISYRFQRGASQSLWDVFAFSFKTEEKDGLLLHTEGSQGDYVTLELQGAHLLLHMSLGSSPIQPRPGHTTVSLGGVLNDLSWHYVRVDRYGRDANFTLDGYAHHFVLNGDFERLNLENEIFIGGLVGAARKNLAYRHNFRGRIENVIYNRINIAEMAVMRHSRITFEGNVAFRCLDPVPHPINFGGPHNFVQVPGFPRRGRLAVSFRFRTWDLTGLLLFSHLGDGLGHVELMLSEGQVNVSIAQTGRKKLQFAAGYRLNDGFWHEVNFVAQENHAVISIDDVEGAEVRVSYPLLIRTGTSYFFGGCPKPASRWGCHSNQTAFHGCMELLKVDGQLVNLTLVEFRKLGYFAEVLFDTCGITDRCSPNMCEHDGRCYQSWDDFICYCELTGYKGVTCHEPLYKESCEAYRLSGKYSGNYTIDPDGSGPLKPFVVYCDIRENRAWTVVRHDRLWTTRVTGSSMDRPFLGAIQYWNASWEEVSALANASQHCEQWIEFSCYNSRLLNTAGGYPYSFWIGRNEEQHFYWGGSQPGIQRCACGLDQSCVDPALHCNCDADQPQWRTDKGLLTFVDHLPVTQVVVGDTNRSNSEAQFFLRPLRCYGDRNSWNTISFHTGAALRFPPIRANHSLDVSFYFRTSAPSGVFLENMGGPFCRWRRPYVRVELNTSRDVVFAFDIGNGDENLTVHSDDFEFNDDEWHLVRAEINVKQARLRVDHRPWVLRPMPLQTYIWLVYDQPLYVGSAELKRRPFVGCLRAMRLNGVTLNLEGRANASEGTFPNCTGHCTHPRFPCFHGGRCVERYSYYTCDCDLTAFDGPYCNHDIGGFFETGTWMRYNLQSALRSAAREFSHMLSRPVPGYEPGYVPGYDTPGYVPGYHGPGYRLPEYPRPGRPVPGYRGPVYNVTGEEVSFSFSTNSAPAVLLYVSSFVRDYMAVLIKEDGTLQLRYQLGTSPYVYQLTTRPVTDGQPHSVNITRVYRNLFIQVDYFPLTEQKFSLLVDSQLDSPKALYLGRVMETGVIDPEIQRYNTPGFSGCLSGVRFNNVAPLKTHFRTPRPMTAELAEAMRVQGELSESNCGAMPRLVSEVPPELDPWYLPPDFPYYHDDGWIAILLGFLVAFLLLGLVGMLVLFYLQNHRYKGSYHTNEPKATHDSHPGGKAPLPPSGPAQAPAPTPAPTQLPTPAPAPAPAPASGPGPRDQNLPQILEESRSE
notes: Co-transfected with Contactin cDNA; the co-IP was done on total cell lysates; also called Mouse Cntnap1^C324R clone; not shown: Flag tag inherited from pCMV-Cntnap1^Flag
Regarding B1, the “level of Cntnap1 co-immunoprecipitated with Contactin, relative to wild-type Cntnap1” value amounted to 60%.

B2: Cntnap1^R765C mutant expressed in HEK cells (site-directed mutant of pCMV-Cntnap1^Flag) (receptor)
chain: WGYYGCNEELVGPLYARSLGASSYYGLFTTARFARLHGISGWSPRIGDPNPWLQIDLMKKHRIRAVATQGAFNSWDWVTRYMLLYGDRVDSWTPFYQKGHNATFFGNVNDSAVVRHDLHYHFTARYIRIVPLAWNPRGKIGLRLGIYGCPYTSSILYFDGDDAISYRFQRGASQSLWDVFAFSFKTEEKDGLLLHTEGSQGDYVTLELQGAHLLLHMSLGSSPIQPRPGHTTVSLGGVLNDLSWHYVRVDRYGRDANFTLDGYAHHFVLNGDFERLNLENEIFIGGLVGAARKNLAYRHNFRGCIENVIYNRINIAEMAVMRHSRITFEGNVAFRCLDPVPHPINFGGPHNFVQVPGFPRRGRLAVSFRFRTWDLTGLLLFSHLGDGLGHVELMLSEGQVNVSIAQTGRKKLQFAAGYRLNDGFWHEVNFVAQENHAVISIDDVEGAEVRVSYPLLIRTGTSYFFGGCPKPASRWGCHSNQTAFHGCMELLKVDGQLVNLTLVEFRKLGYFAEVLFDTCGITDRCSPNMCEHDGRCYQSWDDFICYCELTGYKGVTCHEPLYKESCEAYRLSGKYSGNYTIDPDGSGPLKPFVVYCDIRENRAWTVVRHDRLWTTRVTGSSMDRPFLGAIQYWNASWEEVSALANASQHCEQWIEFSCYNSRLLNTAGGYPYSFWIGRNEEQHFYWGGSQPGIQRCACGLDQSCVDPALHCNCDADQPQWRTDKGLLTFVDHLPVTQVVVGDTNCSNSEAQFFLRPLRCYGDRNSWNTISFHTGAALRFPPIRANHSLDVSFYFRTSAPSGVFLENMGGPFCRWRRPYVRVELNTSRDVVFAFDIGNGDENLTVHSDDFEFNDDEWHLVRAEINVKQARLRVDHRPWVLRPMPLQTYIWLVYDQPLYVGSAELKRRPFVGCLRAMRLNGVTLNLEGRANASEGTFPNCTGHCTHPRFPCFHGGRCVERYSYYTCDCDLTAFDGPYCNHDIGGFFETGTWMRYNLQSALRSAAREFSHMLSRPVPGYEPGYVPGYDTPGYVPGYHGPGYRLPEYPRPGRPVPGYRGPVYNVTGEEVSFSFSTNSAPAVLLYVSSFVRDYMAVLIKEDGTLQLRYQLGTSPYVYQLTTRPVTDGQPHSVNITRVYRNLFIQVDYFPLTEQKFSLLVDSQLDSPKALYLGRVMETGVIDPEIQRYNTPGFSGCLSGVRFNNVAPLKTHFRTPRPMTAELAEAMRVQGELSESNCGAMPRLVSEVPPELDPWYLPPDFPYYHDDGWIAILLGFLVAFLLLGLVGMLVLFYLQNHRYKGSYHTNEPKATHDSHPGGKAPLPPSGPAQAPAPTPAPTQLPTPAPAPAPAPASGPGPRDQNLPQILEESRSE
notes: Co-transfected with Contactin cDNA; the co-IP was done on total cell lysates; also called Mouse Cntnap1^R765C clone; not shown: Flag tag inherited from pCMV-Cntnap1^Flag
In the case of B2, the “level of Cntnap1 co-immunoprecipitated with Contactin, relative to wild-type Cntnap1” value amounted to 10%.
